Assay results published in patent US20250262210A1 (TRUSTEES OF COLUMBIA UNIVERSITY IN THE CITY OF NEW YORK, published 2025).

Assays:
ANKRD52 = target: T1, ANKRD52 (human, UniProt Q8NB46 1-1076); assay: IP/MS, LZTR1 wild type-FLAG, U87
T1 sequence (looked up): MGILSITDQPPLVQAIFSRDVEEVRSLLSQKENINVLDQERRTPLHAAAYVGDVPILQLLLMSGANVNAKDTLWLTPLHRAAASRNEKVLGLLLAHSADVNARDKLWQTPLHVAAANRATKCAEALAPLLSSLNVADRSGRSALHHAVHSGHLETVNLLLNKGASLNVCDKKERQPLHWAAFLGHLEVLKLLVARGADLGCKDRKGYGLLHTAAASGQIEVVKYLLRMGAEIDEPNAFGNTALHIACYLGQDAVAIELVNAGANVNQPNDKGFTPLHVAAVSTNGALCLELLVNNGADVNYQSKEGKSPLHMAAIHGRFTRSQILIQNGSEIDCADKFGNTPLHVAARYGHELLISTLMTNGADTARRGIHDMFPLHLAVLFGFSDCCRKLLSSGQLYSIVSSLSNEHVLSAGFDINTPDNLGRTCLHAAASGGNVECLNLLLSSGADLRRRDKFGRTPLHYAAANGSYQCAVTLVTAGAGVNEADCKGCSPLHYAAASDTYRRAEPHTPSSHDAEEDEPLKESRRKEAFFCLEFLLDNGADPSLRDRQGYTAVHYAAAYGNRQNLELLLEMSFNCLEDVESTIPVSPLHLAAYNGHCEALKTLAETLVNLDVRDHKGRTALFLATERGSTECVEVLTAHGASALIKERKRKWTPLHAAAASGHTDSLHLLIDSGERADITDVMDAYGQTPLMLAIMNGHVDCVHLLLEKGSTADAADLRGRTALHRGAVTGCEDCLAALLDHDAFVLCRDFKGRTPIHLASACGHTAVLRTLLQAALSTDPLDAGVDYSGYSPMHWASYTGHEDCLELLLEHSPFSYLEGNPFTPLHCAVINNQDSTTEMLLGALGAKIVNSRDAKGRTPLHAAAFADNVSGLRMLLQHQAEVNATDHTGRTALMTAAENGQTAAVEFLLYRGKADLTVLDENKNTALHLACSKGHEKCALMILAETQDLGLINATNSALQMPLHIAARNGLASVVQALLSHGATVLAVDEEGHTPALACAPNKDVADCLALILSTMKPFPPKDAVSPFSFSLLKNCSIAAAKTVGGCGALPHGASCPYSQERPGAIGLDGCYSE
How it was run: (§1)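 Read-out: spectral counts from LC-MS/MS (Orbitrap Fusion) after MaxQuant identification. Variable modifications were Met oxidation, protein N-terminal acetylation and N/Q deamidation.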

FKBP15 = target: T2, FKBP15 (human, UniProt Q5T1M5 1-1219, limits assumed); assay: IP/MS, LZTR1 wild type-FLAG, U87
T2 sequence (looked up): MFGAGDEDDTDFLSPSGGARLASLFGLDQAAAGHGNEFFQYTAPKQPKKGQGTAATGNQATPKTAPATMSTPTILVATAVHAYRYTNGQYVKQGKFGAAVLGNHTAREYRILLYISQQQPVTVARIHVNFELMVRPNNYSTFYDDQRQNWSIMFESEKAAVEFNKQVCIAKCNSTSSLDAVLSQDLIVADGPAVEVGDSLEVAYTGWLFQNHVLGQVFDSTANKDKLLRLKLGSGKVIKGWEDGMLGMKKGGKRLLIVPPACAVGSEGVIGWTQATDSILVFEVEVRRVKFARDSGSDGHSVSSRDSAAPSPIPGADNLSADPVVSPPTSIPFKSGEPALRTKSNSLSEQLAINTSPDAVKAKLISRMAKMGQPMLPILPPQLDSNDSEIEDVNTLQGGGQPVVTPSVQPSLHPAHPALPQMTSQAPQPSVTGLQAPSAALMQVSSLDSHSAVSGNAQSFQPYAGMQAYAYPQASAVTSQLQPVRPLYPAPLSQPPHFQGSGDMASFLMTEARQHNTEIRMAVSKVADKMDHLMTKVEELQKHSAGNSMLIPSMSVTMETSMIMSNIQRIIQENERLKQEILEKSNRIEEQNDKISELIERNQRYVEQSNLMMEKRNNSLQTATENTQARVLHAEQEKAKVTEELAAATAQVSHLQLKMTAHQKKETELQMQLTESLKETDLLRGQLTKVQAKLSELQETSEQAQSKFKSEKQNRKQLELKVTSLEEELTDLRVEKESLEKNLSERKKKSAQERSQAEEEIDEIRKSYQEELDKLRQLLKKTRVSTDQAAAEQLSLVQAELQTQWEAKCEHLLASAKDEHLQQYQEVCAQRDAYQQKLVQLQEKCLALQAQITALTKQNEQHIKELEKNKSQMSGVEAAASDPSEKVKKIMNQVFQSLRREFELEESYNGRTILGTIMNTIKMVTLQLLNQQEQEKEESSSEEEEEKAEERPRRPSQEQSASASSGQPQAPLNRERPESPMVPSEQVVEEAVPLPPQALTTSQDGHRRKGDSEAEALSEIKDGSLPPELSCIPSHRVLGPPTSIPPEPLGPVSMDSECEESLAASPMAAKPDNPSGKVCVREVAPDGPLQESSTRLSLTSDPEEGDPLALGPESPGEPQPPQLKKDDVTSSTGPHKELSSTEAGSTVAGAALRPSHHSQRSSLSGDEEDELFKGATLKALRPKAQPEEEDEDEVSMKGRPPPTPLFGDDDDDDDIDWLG
How it was run: as §1

binding result (ANKRD52): binds
binding result (FKBP15): binds
B1: LZTR1-FLAG (other, human, UniProt Q8N653 1-840, looked up)
chain: MAGPGSTGGQIGAAALAGGARSKVAPSVDFDHSCSDSVEYLTLNFGPFETVHRWRRLPPCDEFVGARRSKHTVVAYKDAIYVFGGDNGKTMLNDLLRFDVKDCSWCRAFTTGTPPAPRYHHSAVVYGSSMFVFGGYTGDIYSNSNLKNKNDLFEYKFATGQWTEWKIEGRLPVARSAHGATVYSDKLWIFAGYDGNARLNDMWTIGLQDRELTCWEEVAQSGEIPPSCCNFPVAVCRDKMFVFSGQSGAKITNNLFQFEFKDKTWTRIPTEHLLRGSPPPPQRRYGHTMVAFDRHLYVFGGAADNTLPNELHCYDVDFQTWEVVQPSSDSEVGGAEVPERACASEEVPTLTYEERVGFKKSRDVFGLDFGTTSAKQPTQPASELPSGRLFHAAAVISDAMYIFGGTVDNNIRSGEMYRFQFSCYPKCTLHEDYGRLWESRQFCDVEFVLGEKEECVQGHVAIVTARSRWLRRKITQARERLAQKLEQEAAPVPREAPGVAAGGARPPLLHVAIREAEARPFEVLMQFLYTDKIKYPRKGHVEDVLLIMDVYKLALSFQLCRLEQLCRQYIEASVDLQNVLVVCESAARLQLSQLKEHCLNFVVKESHFNQVIMMKEFERLSSPLIVEIVRRKQQPPPRTPLDQPVDIGTSLIQDMKAYLEGAGAEFCDITLLLDGHPRPAHKAILAARSSYFEAMFRSFMPEDGQVNISIGEMVPSRQAFESMLRYIYYGEVNMPPEDSLYLFAAPYYYGFYNNRLQAYCKQNLEMNVTVQNVLQILEAADKTQALDMKRHCLHIIVHQFTKVSKLPTLRSLSQQLLLDIIDSLASHISDKQCAELGADI
notes: Expressed in HEK 293T, HeLa or U87 cells; used as cell lysate; also called LZTR1 wild type-FLAG; LZTR1 WT; not shown: FLAG tag at the C-terminus
